Experimental data published in patent US20030199077.

B1: Savinase® (subtilisin 309 from B. lentus, BLSAVI) (protein)
chain: AQSVPWGISRVQAPAAHNRGLTGSGVKVAVLDTGISTHPDLNIRGGASFVPGEPSTQDGNGHGTHVAGTIAALNNSIGVLGVAPSAELYAVKVLGASGSGSVSSIAQGLEWAGNNGMHVANLSLGSPSPSATLEQAVNSATSRGVLVVAASGNSGAGSISYPARYANAMAVGATDQNNNRASFSQYGAGLDIVAPGVNVQSTYPGSTYASLNGTSMATPHVAGAAALVKQKNPSWSNVQIRNHLKNTATSLGSTNLYGSGLVNAEAATR

Biological target: T1, trypsin inhibitor type IV-0 (Ovo-inhibitor), Sigma T-1886 (UniProt P10184)
T1 sequence: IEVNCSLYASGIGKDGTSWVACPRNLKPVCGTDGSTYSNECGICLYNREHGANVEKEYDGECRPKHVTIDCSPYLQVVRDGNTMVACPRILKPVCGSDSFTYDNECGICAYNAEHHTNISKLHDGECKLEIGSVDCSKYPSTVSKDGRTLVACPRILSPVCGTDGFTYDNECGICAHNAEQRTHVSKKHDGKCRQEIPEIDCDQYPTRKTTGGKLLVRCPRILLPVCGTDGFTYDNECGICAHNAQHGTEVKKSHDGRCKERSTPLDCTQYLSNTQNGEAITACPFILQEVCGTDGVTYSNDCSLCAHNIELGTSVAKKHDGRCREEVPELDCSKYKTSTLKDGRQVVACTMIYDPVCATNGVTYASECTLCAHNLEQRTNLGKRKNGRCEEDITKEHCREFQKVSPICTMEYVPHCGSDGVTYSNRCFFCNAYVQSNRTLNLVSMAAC

Molecule	Residual Activity (%)
Savinase variant S99SQ+S99T	25
Savinase variant S99SD+N76D+A194P+A230V	18.4
Savinase variant S99SD+S99A+T143K	23
Savinase variant S99SD+S99A+S216SP	29.2
Savinase variant S99SD+S99A	27.3
Savinase variant S99SD+S99A+L217LP	97
Savinase variant A98AT+Y167A+R170S+A194P	88
Savinase variant S99SD+S99A+L217F+A228V+A230V	12
Savinase variant S99SD+S99A+P129PR	21
Savinase variant S99SR+S99T	67.7
Savinase variant S99SD+S99A+P129PD	50
Savinase variant A98AI+A98G+S99H+G100S+S101A	22
Savinase variant S99SD	25
Savinase variant S99SD+S99A+A133E	39
Savinase variant S99SE	27
Savinase variant S99SD+S99A+P131T	35.6
Savinase variant S99SD+M222S	25
Savinase variant S99SN	19
Savinase variant S99SD+S99A+D42DN	69.2
Savinase variant S99SD+S99A+S216SDP	35

Biological target: T2, trypsin inhibitor type IV-0 (Ovo-inhibitor), Sigma T-1886, P10184
T2 chain: T1 sequence

Molecule	Residual Activity (%)
B1	<5
